Each sequence was assayed against Fes (UniProt P07332) (assay: phosphorylation enrichment, bacterial display (enrichment ratio); higher = better substrate or ligand; peptides without Tyr show the background).
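Also: 11-residue human phosphosite peptides and single-mutation variants displayed on the E. coli surface, counted by deep sequencing, each peptide's frequency after selection divided by its frequency in the unselected input library; frequency after pTyr selection over input frequency; kinase dosed for 20-30% of maximal phosphorylation in three min.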

Sequence of Fes (P07332 whole entry, looked up): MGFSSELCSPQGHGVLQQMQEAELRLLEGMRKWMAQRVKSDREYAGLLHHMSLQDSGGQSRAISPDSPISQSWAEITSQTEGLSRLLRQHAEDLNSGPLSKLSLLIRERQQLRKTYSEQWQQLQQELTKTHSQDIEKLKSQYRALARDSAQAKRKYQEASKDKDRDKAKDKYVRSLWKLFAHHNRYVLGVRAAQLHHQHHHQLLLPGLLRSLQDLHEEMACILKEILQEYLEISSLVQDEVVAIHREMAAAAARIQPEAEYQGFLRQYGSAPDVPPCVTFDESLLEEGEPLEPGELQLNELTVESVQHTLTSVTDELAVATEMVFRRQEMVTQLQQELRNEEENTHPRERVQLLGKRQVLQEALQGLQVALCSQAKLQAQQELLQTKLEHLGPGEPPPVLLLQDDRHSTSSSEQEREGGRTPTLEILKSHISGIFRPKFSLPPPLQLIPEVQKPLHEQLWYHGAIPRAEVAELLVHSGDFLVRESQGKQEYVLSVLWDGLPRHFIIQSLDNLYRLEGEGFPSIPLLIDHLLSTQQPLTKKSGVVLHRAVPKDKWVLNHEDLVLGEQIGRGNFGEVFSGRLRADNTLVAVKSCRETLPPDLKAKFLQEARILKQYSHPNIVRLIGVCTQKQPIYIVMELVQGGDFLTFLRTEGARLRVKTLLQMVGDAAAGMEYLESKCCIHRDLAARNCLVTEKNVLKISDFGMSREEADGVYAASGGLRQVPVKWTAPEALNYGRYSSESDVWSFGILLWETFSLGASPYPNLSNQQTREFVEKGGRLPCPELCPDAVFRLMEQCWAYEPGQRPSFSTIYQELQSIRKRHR

Sequence	phosphorylation enrichment
LAGRFYALRSM [CKB_Y174_K177R_YF]	1.92
KMTGRYEMYAR [UPB1_Y362]	0.789
VNKIYYPDFIV [LIG3_Y768]	0.918
IKELTYQMEED [MYH7_Y1852_T1854M]	1.18
EREYKYGAHNH [OAT_Y50_Y55H]	0.603
RFMVGYEMLAQ [GALT_Y339_K334R]	1.41
ANNEFYFQVCA	1.37
HEHVGYTTLNR [CHN1_Y148_Y143H]	0.667
HIKHNYECLVY [XRCC5_Y416]	1.05
KGSLPYSLILD [PKD1L2_Y406_N407S]	1.23
HAVFVCDICHV [TWNK_Y508_Y508C_YF]	0.836
IKGIRYLHHQG [GUCY2D_Y656_R660Q]	0.587
YIATQYSLRPR [LBR_Y166]	0.773
QQLVAYYSKHT [SRC_Y232_A237T]	0.951
YLAAIYPTVGQ [NF1_Y2508_T2507I]	0.89
FRVAGYETQGG [TIA1_Y383_YF]	0.897
DNLNNYVFQGQ [GRIN2A_Y978]	1.06

Sequence	phosphorylation enrichment
NYADPYRQLPY [CTNND2_Y503_Q507P]	0.819
KVQVSYKGDTK [HSPA1A_Y107_E110D]	0.598
HRAVEYLLTGI [RAD23A_Y197]	1.02
QPEDIYHQTWA [GBA_Y244_G241E]	1.09
LRSELYSLIAR [PHIP_Y16_F17S]	1.11
EPTPGYEVGQR [TSC2_Y1788]	0.907
PVGVLYKVKVF [PTS_Y128_YF]	1.61
DRLASYQDKVR [KRT12_Y139_L140Q]	0.68
HFMKLYEEKTG [PARP1_Y618]	0.663
TRSCKYLLLSM [NF1_Y491_Y489C]	0.954
EKSREYHRLFE [PIK3R1_Y463_D464H_YF]	0.737
LIDGYYRLTED [JAK2_Y373_A377E]	1.32
VERIGYDFIPT [CBS_Y308_G305R]	0.801
SVVVPYEPPKV [TP53_Y220_E224K]	0.837
QRPGPYDRPGA [HNRNPH2_Y210]	0.812
VIKDKYPKARF [APTX_Y209_YF]	0.672

These sequences were tested against FGFR3 (UniProt P22607) in the same assay as above.
Sequence of FGFR3 (P22607 whole entry, looked up): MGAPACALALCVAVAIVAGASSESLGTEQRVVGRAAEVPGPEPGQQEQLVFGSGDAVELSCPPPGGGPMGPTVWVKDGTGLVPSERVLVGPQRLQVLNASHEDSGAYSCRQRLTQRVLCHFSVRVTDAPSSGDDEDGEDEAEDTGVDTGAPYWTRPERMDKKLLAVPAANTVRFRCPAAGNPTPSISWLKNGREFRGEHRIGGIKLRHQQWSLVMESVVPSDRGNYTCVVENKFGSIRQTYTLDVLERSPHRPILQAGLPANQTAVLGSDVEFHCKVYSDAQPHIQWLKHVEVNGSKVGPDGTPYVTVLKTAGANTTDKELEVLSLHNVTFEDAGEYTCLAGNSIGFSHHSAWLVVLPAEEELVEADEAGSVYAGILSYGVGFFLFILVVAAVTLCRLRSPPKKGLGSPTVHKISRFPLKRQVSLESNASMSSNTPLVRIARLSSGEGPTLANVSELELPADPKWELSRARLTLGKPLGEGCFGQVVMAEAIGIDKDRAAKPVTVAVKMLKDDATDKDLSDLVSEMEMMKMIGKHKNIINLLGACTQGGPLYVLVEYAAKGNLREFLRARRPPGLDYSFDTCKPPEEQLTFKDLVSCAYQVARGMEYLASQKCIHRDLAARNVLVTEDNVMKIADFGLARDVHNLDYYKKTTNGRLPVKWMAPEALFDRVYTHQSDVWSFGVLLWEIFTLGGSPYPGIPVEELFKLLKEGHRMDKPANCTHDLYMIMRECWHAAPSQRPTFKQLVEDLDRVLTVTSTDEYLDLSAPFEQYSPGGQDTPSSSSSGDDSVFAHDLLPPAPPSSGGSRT

Sequence	phosphorylation enrichment
LAGRFYALRSM [CKB_Y174_K177R_YF]	1.84
KMTGRYEMYAR [UPB1_Y362]	0.487
VNKIYYPDFIV [LIG3_Y768]	7.46
IKELTYQMEED [MYH7_Y1852_T1854M]	0.768
EREYKYGAHNH [OAT_Y50_Y55H]	0.463
RFMVGYEMLAQ [GALT_Y339_K334R]	0.873
ANNEFYFQVCA	0.939
HEHVGYTTLNR [CHN1_Y148_Y143H]	0.744
HIKHNYECLVY [XRCC5_Y416]	0.839
KGSLPYSLILD [PKD1L2_Y406_N407S]	2.16
HAVFVCDICHV [TWNK_Y508_Y508C_YF]	0.775
IKGIRYLHHQG [GUCY2D_Y656_R660Q]	0.45
YIATQYSLRPR [LBR_Y166]	0.527
QQLVAYYSKHT [SRC_Y232_A237T]	0.926
YLAAIYPTVGQ [NF1_Y2508_T2507I]	0.88
FRVAGYETQGG [TIA1_Y383_YF]	0.553
DNLNNYVFQGQ [GRIN2A_Y978]	0.789

Sequence	phosphorylation enrichment
NYADPYRQLPY [CTNND2_Y503_Q507P]	2.33
KVQVSYKGDTK [HSPA1A_Y107_E110D]	0.378
HRAVEYLLTGI [RAD23A_Y197]	0.817
QPEDIYHQTWA [GBA_Y244_G241E]	4.93
LRSELYSLIAR [PHIP_Y16_F17S]	0.811
EPTPGYEVGQR [TSC2_Y1788]	0.591
PVGVLYKVKVF [PTS_Y128_YF]	1.4
DRLASYQDKVR [KRT12_Y139_L140Q]	0.539
HFMKLYEEKTG [PARP1_Y618]	1.08
TRSCKYLLLSM [NF1_Y491_Y489C]	0.552
EKSREYHRLFE [PIK3R1_Y463_D464H_YF]	0.538
LIDGYYRLTED [JAK2_Y373_A377E]	1.57
VERIGYDFIPT [CBS_Y308_G305R]	0.605
SVVVPYEPPKV [TP53_Y220_E224K]	0.612
QRPGPYDRPGA [HNRNPH2_Y210]	0.48
VIKDKYPKARF [APTX_Y209_YF]	0.504

The sequences below were run against FGFR1 (UniProt P11362) in the same assay as above.
Sequence of FGFR1 (P11362 whole entry, looked up): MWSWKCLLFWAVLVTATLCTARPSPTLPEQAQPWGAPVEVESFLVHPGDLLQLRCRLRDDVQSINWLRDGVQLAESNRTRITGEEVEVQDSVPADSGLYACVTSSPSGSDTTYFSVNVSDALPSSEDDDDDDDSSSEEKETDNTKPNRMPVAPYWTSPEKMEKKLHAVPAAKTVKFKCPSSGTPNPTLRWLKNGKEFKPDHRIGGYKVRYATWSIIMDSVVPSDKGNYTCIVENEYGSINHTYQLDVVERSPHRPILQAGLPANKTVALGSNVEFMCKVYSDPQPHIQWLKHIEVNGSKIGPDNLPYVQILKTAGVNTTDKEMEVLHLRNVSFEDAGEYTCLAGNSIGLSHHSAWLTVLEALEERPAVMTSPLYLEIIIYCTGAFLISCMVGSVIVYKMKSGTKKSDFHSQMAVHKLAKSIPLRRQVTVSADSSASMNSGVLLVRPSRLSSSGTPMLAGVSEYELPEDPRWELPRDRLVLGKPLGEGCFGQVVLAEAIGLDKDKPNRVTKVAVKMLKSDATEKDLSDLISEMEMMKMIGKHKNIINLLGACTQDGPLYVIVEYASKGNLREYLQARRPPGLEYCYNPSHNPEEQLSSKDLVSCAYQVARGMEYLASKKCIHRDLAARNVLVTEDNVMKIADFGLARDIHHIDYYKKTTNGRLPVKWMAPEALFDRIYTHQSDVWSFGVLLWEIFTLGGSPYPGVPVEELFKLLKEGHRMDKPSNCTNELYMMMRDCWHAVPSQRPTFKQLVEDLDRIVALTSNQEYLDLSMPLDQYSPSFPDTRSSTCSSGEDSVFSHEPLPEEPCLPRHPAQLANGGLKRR

Sequence	phosphorylation enrichment
LAGRFYALRSM [CKB_Y174_K177R_YF]	0.598
KMTGRYEMYAR [UPB1_Y362]	0.523
VNKIYYPDFIV [LIG3_Y768]	8.82
IKELTYQMEED [MYH7_Y1852_T1854M]	0.591
EREYKYGAHNH [OAT_Y50_Y55H]	0.485
RFMVGYEMLAQ [GALT_Y339_K334R]	0.875
ANNEFYFQVCA	0.755
HEHVGYTTLNR [CHN1_Y148_Y143H]	0.573
HIKHNYECLVY [XRCC5_Y416]	0.924
KGSLPYSLILD [PKD1L2_Y406_N407S]	2.32
HAVFVCDICHV [TWNK_Y508_Y508C_YF]	0.506
IKGIRYLHHQG [GUCY2D_Y656_R660Q]	0.465
YIATQYSLRPR [LBR_Y166]	0.551
QQLVAYYSKHT [SRC_Y232_A237T]	0.818
YLAAIYPTVGQ [NF1_Y2508_T2507I]	1.16
FRVAGYETQGG [TIA1_Y383_YF]	0.449
DNLNNYVFQGQ [GRIN2A_Y978]	0.703

Sequence	phosphorylation enrichment
NYADPYRQLPY [CTNND2_Y503_Q507P]	4.13
KVQVSYKGDTK [HSPA1A_Y107_E110D]	0.425
HRAVEYLLTGI [RAD23A_Y197]	0.8
QPEDIYHQTWA [GBA_Y244_G241E]	6.95
LRSELYSLIAR [PHIP_Y16_F17S]	0.693
EPTPGYEVGQR [TSC2_Y1788]	0.514
PVGVLYKVKVF [PTS_Y128_YF]	0.842
DRLASYQDKVR [KRT12_Y139_L140Q]	0.394
HFMKLYEEKTG [PARP1_Y618]	0.464
TRSCKYLLLSM [NF1_Y491_Y489C]	0.53
EKSREYHRLFE [PIK3R1_Y463_D464H_YF]	0.526
LIDGYYRLTED [JAK2_Y373_A377E]	1.51
VERIGYDFIPT [CBS_Y308_G305R]	0.56
SVVVPYEPPKV [TP53_Y220_E224K]	0.41
QRPGPYDRPGA [HNRNPH2_Y210]	0.43
VIKDKYPKARF [APTX_Y209_YF]	0.425

Each sequence was assayed against EPHB1 (UniProt P54762) in the same assay as above.
Sequence of EPHB1 (P54762 whole entry, looked up): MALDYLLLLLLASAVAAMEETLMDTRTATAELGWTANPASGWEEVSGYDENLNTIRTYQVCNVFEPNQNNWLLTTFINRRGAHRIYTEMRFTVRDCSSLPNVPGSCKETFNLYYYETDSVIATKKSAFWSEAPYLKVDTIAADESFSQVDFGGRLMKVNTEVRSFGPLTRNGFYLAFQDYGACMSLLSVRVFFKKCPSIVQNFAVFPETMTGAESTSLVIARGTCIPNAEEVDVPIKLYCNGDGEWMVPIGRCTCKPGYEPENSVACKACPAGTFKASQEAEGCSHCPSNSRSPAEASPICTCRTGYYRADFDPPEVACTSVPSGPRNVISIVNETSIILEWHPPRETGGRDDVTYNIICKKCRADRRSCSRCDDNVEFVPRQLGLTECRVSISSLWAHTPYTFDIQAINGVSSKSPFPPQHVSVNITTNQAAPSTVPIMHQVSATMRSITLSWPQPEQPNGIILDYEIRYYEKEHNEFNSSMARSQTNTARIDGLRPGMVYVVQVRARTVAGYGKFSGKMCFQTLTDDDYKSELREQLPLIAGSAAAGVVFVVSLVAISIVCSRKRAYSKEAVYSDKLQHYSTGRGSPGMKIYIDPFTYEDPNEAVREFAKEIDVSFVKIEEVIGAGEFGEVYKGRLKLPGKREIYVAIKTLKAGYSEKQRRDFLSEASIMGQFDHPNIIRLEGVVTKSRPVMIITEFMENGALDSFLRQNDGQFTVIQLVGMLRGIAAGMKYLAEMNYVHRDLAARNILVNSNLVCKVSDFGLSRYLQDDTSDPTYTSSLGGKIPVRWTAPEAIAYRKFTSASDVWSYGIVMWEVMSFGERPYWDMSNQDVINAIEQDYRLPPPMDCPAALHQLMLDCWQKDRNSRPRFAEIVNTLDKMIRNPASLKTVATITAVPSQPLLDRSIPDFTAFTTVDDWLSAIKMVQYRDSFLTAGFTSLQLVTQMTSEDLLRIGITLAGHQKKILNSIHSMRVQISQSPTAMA

Sequence	phosphorylation enrichment
LAGRFYALRSM [CKB_Y174_K177R_YF]	0.583
KMTGRYEMYAR [UPB1_Y362]	0.58
VNKIYYPDFIV [LIG3_Y768]	0.621
IKELTYQMEED [MYH7_Y1852_T1854M]	0.634
EREYKYGAHNH [OAT_Y50_Y55H]	0.391
RFMVGYEMLAQ [GALT_Y339_K334R]	0.939
ANNEFYFQVCA	0.656
HEHVGYTTLNR [CHN1_Y148_Y143H]	0.498
HIKHNYECLVY [XRCC5_Y416]	2.87
KGSLPYSLILD [PKD1L2_Y406_N407S]	0.822
HAVFVCDICHV [TWNK_Y508_Y508C_YF]	0.627
IKGIRYLHHQG [GUCY2D_Y656_R660Q]	0.45
YIATQYSLRPR [LBR_Y166]	0.511
QQLVAYYSKHT [SRC_Y232_A237T]	1.42
YLAAIYPTVGQ [NF1_Y2508_T2507I]	0.511
FRVAGYETQGG [TIA1_Y383_YF]	0.428
DNLNNYVFQGQ [GRIN2A_Y978]	1.77

Sequence	phosphorylation enrichment
NYADPYRQLPY [CTNND2_Y503_Q507P]	10.1
KVQVSYKGDTK [HSPA1A_Y107_E110D]	0.299
HRAVEYLLTGI [RAD23A_Y197]	0.846
QPEDIYHQTWA [GBA_Y244_G241E]	0.843
LRSELYSLIAR [PHIP_Y16_F17S]	5.23
EPTPGYEVGQR [TSC2_Y1788]	0.472
PVGVLYKVKVF [PTS_Y128_YF]	1.14
DRLASYQDKVR [KRT12_Y139_L140Q]	0.411
HFMKLYEEKTG [PARP1_Y618]	0.482
TRSCKYLLLSM [NF1_Y491_Y489C]	0.521
EKSREYHRLFE [PIK3R1_Y463_D464H_YF]	0.407
LIDGYYRLTED [JAK2_Y373_A377E]	0.708
VERIGYDFIPT [CBS_Y308_G305R]	0.544
SVVVPYEPPKV [TP53_Y220_E224K]	0.474
QRPGPYDRPGA [HNRNPH2_Y210]	0.453
VIKDKYPKARF [APTX_Y209_YF]	0.339
